The domain aggregation screens of Martell et al. (2025)

Experiment: soluble fraction after stress (log2 fold change); higher = more stays soluble; pooled small domains, quantitative proteomics
Settings: stress: 50 degC
Method in brief: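 Each library was heated to 50°C as a stress step. The libraries, made up of small protein domains, were pooled and analysed at high throughput by quantitative proteomics. The reported value is the base-two logarithm of the fold change in each protein's soluble amount after stress, taken as a measure of aggregation propensity. The higher the value, the more protein stays in solution.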

| Sequence | soluble fraction (log2) |
| --- | --- |
| HMQLTPAQHAILAKAIHSSDGKIEWFPDNVKGGARKKVLEGMFNRALITPDGEGWRIAAEGYDALGMPRP | -0.0604 |
| HMSISSIDFENLKSDELSDAQITQIYRQAQEQGLSIDELSSLAIARGMSPTEVAKLRSRFNSIP | 0.167 |
| HMQPPVDGNEIMEIFGIKGSPVIGVIKSTIKNAILDGIIAPNDREAALELMFRIADENGLKPVVTQTQ | 0.101 |
| HMKPDSEFTSQDLWQNDLAGTGSAAYRRDKMGALLGIGYGNAKRFLERLNSYGVTRSEFDEALAQLGE | -0.0612 |
| HMTGEERRMNTADLYRRRGMELFKRKIYVDAIDSLKVSLEYEDNATTRYYLDLATKRYQDLKIS | -1.12 |
| HMEAAIRNALSRVENPDETQRARIYRTAHDALIRNLENRGITDPEQVRPQVSRLKDLISVIEREYHG | -0.0521 |
| HMKLSNELLNAIMLIKKGIRNPTSLAQRLNTDTQYAKNLLEHLKMTGLINEHSRLTSRGLDIFHQK | 0.163 |
| HMSTIAAMADPRAWALEMLGFPPGTVKPSKREIQVRFRESLRDVHPDHGGDSRTASASINDLSEARRVLLS | -0.188 |
| HMKKLPEKFDYNEISGLRIEAQQKLNEFQPLNIGQASRISGVTPADISVLLVYLEQLKYSNPDLFFKLNPD | -0.798 |
| HMKPTSLLGIERYLGSGLIRGVGPSTAKQIVEHFGMETMEVLTEHPERLQEVHGMGRKRWRQIAESFQEQQ | -0.797 |
| HMAEDDAVQKAVREAVAESADAVADYKAGSERALNFIVGVVMKKTRGKASPGEVHRLVKAEVEK | 0.4 |
| HMDQNDYMLTRIRNGQMRNKVSVSMPASKIKSAIAAVLKDEGYIENFALNDSSGKPSLIVNLKYYAGQPV | -0.0135 |
| HMGTVIGMGRITAGGVNFRETEGGGVIEKLERDTLVEVLTVPSVIDTTHWYQVRYNNRTGYVQAPFVQLLG | -0.0951 |
| HMAISQYGSQSDEVTKIQTRLKAWGYFDGPVTAYYGSQTTEAVKKFQQKHGLSATGVADAKTLELIGLP | -0.36 |
| HMQISDTASIQEIAKEIIKSNPKAVEDYKKGKENALQFLVGQLMTKTKGTVHPGAARTILGDILK | 0.0851 |
| HMYGHKLDSYESYVVSELRRWPFLSAPQIHDRLKEHFSDLPLVTPKTVFNFVNRLRLTHSLPKE | -3.13 |
| HMVDKSYIHNQQVASDTWTVQHNLGKYPAVSVADTGNNEVYGDVRHINENTVELKFSHPFSGVAFF | 0.281 |
| HMIQAGDLVFIWNPKKGDNFLIKVTPGMSQGTHFGQIKHTELMEREYGEGIVTPKGEVYYLLRPTLAGYTR | -0.973 |
| HMLPTLSLSVKIYKGEGDIALDLEEMVKAFDQLNFGSYPFSEKGVHGTNIVIRGNDKKHMEEAEDKVRSLT | -0.725 |

| Sequence | soluble fraction (log2) |
| --- | --- |
| HMPGTAAQARQLKAWLKENGEKPGAALPALQKAQEIYGYVPREVQQLIADALHKPLTEIYGVSTFYSQFNL | -0.573 |
| HMYAGTVTQVKNNKVMLEFDGETVNVGDQFFILNSDGKKVAIVEITAAKNKKALANVLKGKAVVDGTTQAK | -0.111 |
| HMGRLTTKIVLYDRIENIVPERRKELVADIEKRIGVKVEVLEIGHVDFVRDAAWLKVSYYLAPGE | -1.06 |
| HMETFNMTQKEITRLRVINQAIDKVITIREAAELLGLSERQVIRLKGGVEKFGPAFIIHKNRGRKP | -0.71 |
| HMASPTKQLVLEALRASGQPMSSMELSAQIGVSRATAQRYLSTLASAGEVKIQLRYGTTGRPEQEFLAIE | -0.868 |
| HMRGINDLSLVDPQGRIRKDGEQYVVAFGRHKGKEISQIISQDPSYLNWLLSPKGIEDDATRELIRTQYS | -0.0415 |
| HMKKTIIVHVVGEVNTPGIVELNEGARIIDAINGAGGKTEEADMSKINLAYVIEDGSQIYVPSIYE | -0.227 |
| HMANTSAVIKQPGLVKLFAQHFVRNGFNAMKAAEAAGFVRPSPTFVRNLADSKPVKDAISELLGPYNDA | -0.0131 |
| HMVEQVEISILPGEYSDTISQKLLDAGLIDDKAAFSKYINDTNVDNLIQPGTFTVPKGASYEEVAKILT | 0.212 |
| HMFNRAVSDNEALQVREHFDRDATVMSLAKKYGVSTVTIQRILLGKTYRNVGGPLFDKATLKKRMGN | -0.66 |
| HMTTYVNGSWSGWNGSTVVKLTDGSVWRQAEYHYEYHYAYRPQARLERDELFVEGMSRGVRV | -0.104 |
| HMGRTITVGIAEDADIKDIAKMLEEKGLISDYRLFVVQELLSAQHDKIKPGIYDLSTDMKAEEMLEILAG | -0.541 |
| HMQKEIKVPDVANMALSEAVEKLQNEGFKVADEQKEVSSDEIEEGKVVKTSPVAGTKKTKGSEITIYISSG | -0.0254 |
| HMEQVSDPALLERYAKEVVAASPKAVADYQAGNAKAFQALVGQMMKRTKGKGDPALIREILQKL | 0.0957 |
| HMLSSNEIKEIFALFDKSNRGQVATSELGTLVRALNLNPTETEITDMQSKVDPKGQGSFTLDVLEKVVQD | 0.206 |
| HMEKIDEDIMDVLKKKAEVSGISLGVLKSIYEKAVKQYKLGHEIGQVKEQYAMQKVNTHLLENK | 0.194 |
| HMDIPTSAEAVRAYLASGFIKGIGEATARMLVDKFGAETLEIIKTEPMKLTKISGIGPKKAKMIHESYLEK | 0.177 |
| HMRPRWTEQEVERAKAIKMIYPNAYRLESSDVFVQVWSKEEILLAHVEVDMFPSLRPGQPVELDEIIG | 0.103 |
